For one test, the target named is T1, Human_CB2-pANITA3.1 (human).
T1 construct: Expressed on transfected HEK293 cells; tested on fixed cells (IF) or in lysate (WB, IP); also called pANITA3.1 hCB2 (JB175); hCB2 (JB175)
The experiment in a line: Western blot, cell lysate. On the procedure: For Western blot analysis, cells were collected using enzyme free dissociation buffer (Cell dissociation buffer enzyme-free Hanks'-based, Gibco), and washed two times with PBS. To prepare cell lysate, 10⁶ cells were lysed with 0.1 ml of lysis buffer (1% NP40, 10% glycerol, 2 mM EDTA, 137 mM NaCl, 20 mM TrisHCl, pH8, Protease Inhibitors) for 10 min on ice. The lysate was cleared by centrifugation at 20′000 g for 5 min. For SDS-PAGE cell lysate was resolved on precast 4-12% gradient gels (NuPAGE® Novex 4-12% Bis-Tris Gel, Invitrogen) with MES running buffer according to the manufacturer's directions. The separation of proteins was visualized by Colloidal Blue staining. The proteins were electrophoretically transferred to nitrocellulose membrane using a dry-blotting system (iBlot, Invitrogen). After blocking the membrane for 16 h in blocking buffer (5% Milk in PBS) at 4° C., specific proteins were detected with appropriate dilutions of mAbs in blocking buffer for 1 h at approximately 20° C. The membrane was then washed four times for 5 minutes in blocking buffer and incubated with horseradish peroxidase conjugated anti-mouse IgG mAb (GAM/IgG (g-chain)/HRP, Sigma, A9917) diluted 1:10'000 in blocking buffer at approximately 20° C. for 1 h. After washing again, blots were developed using ECL Western blotting detection reagents (ECL Western Blotting Substrate, Pierce) to visualize bands.
For orientation: In western blotting, separated proteins are transferred to a membrane and probed.

The next test addresses T2, Mouse_CB2-pANITA3.1 (mouse).
T2 construct: Fusion of the mouse CB2 N-terminal extracellular domain with mouse glycophorin A transmembrane and His-tagged cytoplasmic domains; Expressed on transfected HEK293 cells; also called pANITA3.1 mCB2 (JB176); mCB2 (JB176)
Put plainly: immunofluorescence, fixed cells. The protocol:
(§1) For IF analysis, methanol-fixed cells were incubated for 20 min in a humid chamber at 37° C. with the respective hCB2 and mCB2 clones. After rinsing twice and washing for 15 min in PBS, 125 μg/ml FITC-conjugated […] anti-mouse IgG antibodies (RAM/IgG (H+L)/FITC, Nordic

The target in a further test is T3, human CB1 (full length) (human, UniProt P21554 1-472).
T3 construct: whole, on cells; In Western blot and immunoprecipitation the protein stood in cell lysate; also called hCB1; CHODukx CRE hCB1 Cl.20
The experiment in a line: immunofluorescence, fixed cells. The protocol: as §1

The next test has as its target T4, mouse CB2 (full length) (mouse, UniProt P47936 1-347).
T4 construct: whole, on cells; In Western blot and immunoprecipitation the protein stood in cell lysate; also called mCB2; CHO-A2 mCB2
Put plainly: immunofluorescence, fixed cells. On the procedure: as §1

For another test, the target named is T5, human CB2 (full length) (human, UniProt P34972 1-360).
T5 construct: whole, on cells; In Western blot and immunoprecipitation the protein stood in cell lysate; also called hCB2; CHODukx CRE hCB2 Cl.90
Put plainly: flow cytometry, CHO-DUKX_HOMSA_CNR2_Clone_90_CRE-Luc cells against CHO-DUKX parental cells. From the text:
For detection an F(ab)₂ goat-anti Mouse IgG₃ PE antibody was used.
A general note: Flow cytometry measures light scatter and fluorescence of single cells or particles in a stream.

T4 sequence (P47936 whole entry): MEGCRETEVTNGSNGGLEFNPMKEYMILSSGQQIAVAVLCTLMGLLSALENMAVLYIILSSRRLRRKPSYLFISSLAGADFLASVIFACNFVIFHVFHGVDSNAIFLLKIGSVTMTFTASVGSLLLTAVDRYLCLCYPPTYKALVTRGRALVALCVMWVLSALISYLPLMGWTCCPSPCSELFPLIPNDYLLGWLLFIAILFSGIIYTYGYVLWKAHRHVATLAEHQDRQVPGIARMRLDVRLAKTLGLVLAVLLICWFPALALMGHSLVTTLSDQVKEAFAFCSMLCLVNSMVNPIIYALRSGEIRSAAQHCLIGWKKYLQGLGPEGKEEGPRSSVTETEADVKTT
T3 sequence (P21554 whole entry): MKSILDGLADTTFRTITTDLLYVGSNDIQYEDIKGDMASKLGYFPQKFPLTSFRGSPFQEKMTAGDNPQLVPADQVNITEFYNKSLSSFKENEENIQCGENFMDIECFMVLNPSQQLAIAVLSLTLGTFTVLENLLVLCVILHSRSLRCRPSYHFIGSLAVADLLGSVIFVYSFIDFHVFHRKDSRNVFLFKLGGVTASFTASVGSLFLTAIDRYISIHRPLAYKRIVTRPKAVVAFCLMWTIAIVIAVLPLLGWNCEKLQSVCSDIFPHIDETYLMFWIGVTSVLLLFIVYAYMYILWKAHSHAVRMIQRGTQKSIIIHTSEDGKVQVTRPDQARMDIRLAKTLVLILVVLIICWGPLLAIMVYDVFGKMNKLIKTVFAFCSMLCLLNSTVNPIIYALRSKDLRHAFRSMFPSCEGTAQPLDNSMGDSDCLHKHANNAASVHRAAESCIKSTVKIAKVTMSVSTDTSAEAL
T5 sequence (P34972 whole entry): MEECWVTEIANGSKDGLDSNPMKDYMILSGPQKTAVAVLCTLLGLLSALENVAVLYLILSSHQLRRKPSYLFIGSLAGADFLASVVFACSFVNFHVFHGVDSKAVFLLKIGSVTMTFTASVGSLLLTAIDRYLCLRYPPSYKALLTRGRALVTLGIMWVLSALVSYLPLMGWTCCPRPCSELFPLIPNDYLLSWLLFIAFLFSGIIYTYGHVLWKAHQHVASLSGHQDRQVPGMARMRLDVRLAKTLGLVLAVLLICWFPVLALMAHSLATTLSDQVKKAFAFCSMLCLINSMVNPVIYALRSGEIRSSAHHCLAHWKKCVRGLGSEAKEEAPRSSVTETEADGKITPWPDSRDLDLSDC
T2 sequence (chain, as listed by the source): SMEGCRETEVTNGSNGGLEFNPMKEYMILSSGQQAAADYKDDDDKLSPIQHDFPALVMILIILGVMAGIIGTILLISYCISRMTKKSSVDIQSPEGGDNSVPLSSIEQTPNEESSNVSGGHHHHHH
T1 sequence (chain, as listed by the source): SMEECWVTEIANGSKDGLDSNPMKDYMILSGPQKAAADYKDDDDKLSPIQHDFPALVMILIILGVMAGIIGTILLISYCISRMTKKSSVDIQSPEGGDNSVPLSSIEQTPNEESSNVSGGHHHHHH

B1: Anti-CB2 clone 1/622 (antibody, IgG3, V domains shown)
VH: EVQLQQSGPELVKPGASVKISCKTSGYTFTEYTMHWVRQSHGKSLEWIGGIDRYNGDTYYNQKFKDKATLTVDRSSSTAYMELRSLTSEDSAVYFCARNGAMDYWGQGISVTVSS
VL: DVVMTQTPLSLPVSLGDQASISCRSSQSLVHSNGNTYLHWFLQKPGQSPKLLIYKVSIRFSGVPDRFSGSGSGTDFTLKISRVEAEDLGVYFCSQSTHVPPLTFGAGTKLELKR
In the case of B1, the binding result with Human_CB2-pANITA3.1 is “binds”; with Mouse_CB2-pANITA3.1, “no binding”; with human CB1 (full length), “no binding”; with mouse CB2 (full length) it was “no binding”. The “signal to background ratio” value with human CB2 (full length) was 10.

Values taken from patent US20260029420A1 (Hoffmann-La Roche, published 2026).
